The source of these data is patent EP4480965A1, “TRANSFERRIN RECEPTOR-BINDING MOLECULES, CONJUGATES THEREOF AND THEIR USES TO PREVENT OR TREAT CNS DISEASES” (Vect-Horus, priority 2023, dated 2024).

This data set deals with murine SOD1 mRNA. In words: siRNA biodistribution and SOD1 mRNA by in situ hybridization (miRNAScope / RNAScope). The following applies: single ICV dose 100 µg, seven days. The format is in vivo, C57Bl/6 mice. As for the experimental part: For ISH bioanalysis, 20 µm sagittal cryosections of left brain hemispheres or coronal sections of spinal cords were prepared using a cryostat at -20°C (Leica), collected onto superfrost plus slides and stored at - 80°C until processing. For RNAScope® or miRNAScope® assays, slides containing cyosections were immediately transferred and fixed in 10% Neutral buffered formalin (NBF) for 1h30 at RT. Fluorescent RNAscope® assay for mRNAs detection or chromogenic miRNAscope® assay for siRNA detection were performed according to the manufacter's protocols (Advanced Cell Diagnostics, ACD). […] This distribution correlates with a broad and potent SOD1 mRNA knock-down, as assessed using RNAScope® (Figure 29B and 29E, right panels). […]
For ISH bioanalysis, 20 µm sagittal cryosections of left brain hemispheres or coronal sections of spinal cords were prepared using a cryostat at -20°C (Leica), collected onto superfrost plus slides and stored at - 80°C until processing. […] This distribution correlates with a broad TfR-dependent and potent SOD1 mRNA knock-down, as assessed using RNAScope® (Figure 31C and 31I, right panels).
An example of cleavable linker was evaluated and compared to the C5-hFc-siSOD1m-5'VP for its biodistribution in CNS tissues following systemic administration. […]

B1: C5-siSOD1m-5'VP: TfR-binding VHH-siRNA conjugate wherein VHH is C5 (conjugate)
VHH: EVQLVESGGGVVQPGGSLKLSCVASGTDFSINFIRWYRQAPGKQREFVAGFTATGNTNYADSMKGRFTISRDNTKNAVYLQIDSLKPEDTAVYYCYMLDKWGQGTQVTVSSAAAEQKLISEEDLNGAAHHHHHHGS
Take B1: the “biodistribution of the siSOD1m AS strand in brain and spinal cord” value is on record as “broad biodistribution”.
